Biological target: T1, Met-Gly-Met-Met peptide substrate
T1 chain: MGMM

Protein | Specific activity (MetAP activity on 2 mM Met-Gly-Met-Met) | catalytic activity in vitro
N-terminal HA-tagged wild-type yeast MetAP2 (protein) YPYDVPDYAMTDAEIENSPASDLKELNLENEGVEQQDQAKADESDPVESKKKKNKKKKKKKSNVKKIELLFPDGKYPEGAWMDYHQDFNLQRTTDEESRYLKRDLERAEHWNDVRKGAEIHRRVRRAIKDRIVPGMKLMDIADMIENTTRKYTGAENLLAMEDPKSQGIGFPTGLSLNHCAAHFTPNAGDKTVLKYEDVMKVDYGVQVNGNIIDSAFTVSFDPQYDNLLAAVKDATYTGIKEAGIDVRLTDIGEAIQEVMESYEVEINGETYQVKPCRNLCGHSIAPYRIHGGKSVPIVKNGDTTKMEEGEHFAIETFGSTGRGYVTAGGEVSHYARSAEDHQVMPTLDSAKNLLKTIDRNFGTLPFCRRYLDRLGQEKYLFALNNLVRHGLVQDYPPLNDIPGSYTAQFEHTILLHAHKKEVVSKGDDYGKMRFQMASSLGIILL | Specific activity for the wild-type MetAP2 was 11±0.5 U/mg | 
N-terminal HA-tagged yeast MetAP2 (H174A) (protein) YPYDVPDYAMTDAEIENSPASDLKELNLENEGVEQQDQAKADESDPVESKKKKNKKKKKKKSNVKKIELLFPDGKYPEGAWMDYHQDFNLQRTTDEESRYLKRDLERAEHWNDVRKGAEIHRRVRRAIKDRIVPGMKLMDIADMIENTTRKYTGAENLLAMEDPKSQGIGFPTGLSLNHCAAAFTPNAGDKTVLKYEDVMKVDYGVQVNGNIIDSAFTVSFDPQYDNLLAAVKDATYTGIKEAGIDVRLTDIGEAIQEVMESYEVEINGETYQVKPCRNLCGHSIAPYRIHGGKSVPIVKNGDTTKMEEGEHFAIETFGSTGRGYVTAGGEVSHYARSAEDHQVMPTLDSAKNLLKTIDRNFGTLPFCRRYLDRLGQEKYLFALNNLVRHGLVQDYPPLNDIPGSYTAQFEHTILLHAHKKEVVSKGDDYGKMRFQMASSLGIILL |  | displayed no detectable activity against a peptide substrate (MGMM)

Reference: US20020182701
